Assay results as given in the supplement of paper PMC10266784.

B1: library; numbered along this chain (parent)
chain: MAAAAAAAAEQQSSNGPVKKSMREKAVERRSVNKEHNSNFKAGYIPIDEDRLHKTGLRGRKGNLAICVIILLFILAVINLIITLVIWAVIRIGPNGCDSMEFHESGLLRFKQVSDMGVIHPLYKSTVGGRRNENLVITGNNQPIVFQQGTTKLSVENNKTSITSDIGMQFFDPRTQNILFSTDYETHEFHLPSGVKSLNVQKASTERITSNATSDLNIKVDGRAIVRGNEGVFIMGKTIEFHMGGNMELKAENSIILNGSVMVSTTRLPSSSSGDQLGSGDWVRYKLCMCADGTLFKVQVTSQNMGCQISDNPCGNTH

Variants of: B1
Test: SGCB cell-surface expression functional score (HA stain, bin4 vs bin1, normalised to synonymous) (log10 ratio); higher = more cell-surface SGCB (functional)
Summary of the method: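 Codon-saturation libraries of HA-tagged, YFP-fused human beta-sarcoglycan were lentivirally transduced at MOI <0.1 into HEK293 cells stably expressing alpha-, gamma- and delta-sarcoglycan. YFP-positive cells were sorted after 72 hours, grown 5–7 days, stained on ice with Alexa Fluor 647 anti-HA, fixed, sorted into four 5% intensity bins and amplicon-sequenced. The functional score is the log ratio of highest-bin to lowest-bin variant frequency, taken as the median over codons and duplicate transductions. Synonymous variants were scaled per section to mean 0, SD 0.5.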

SGCB cell-surface expression functional score (log10): each site, then its substitutions
V232: I 0.47 | Q -1.69 | E -1.63 | H 0.69 | C 0.7 | N -1.99 | R -1.12 | K -1.43 | S -0.67 | F 0.02 | G -0.27 | L 0.35 | D -1.72 | A -0.53 | P -0.64 | Y -1.09 | T 0 | W -1.85 | M 0.68
G231: D -0.08 | P -1.37 | S -0.88 | W -1.9 | T -0.29 | F -0.12 | I -1.29 | N -0.19 | Y 0.68 | E 0.17 | M -1.23 | K -1.12 | C -0.5 | R 0.27 | V -1.02 | L -0.37 | Q -0.92 | A -0.01 | H -0.09
R227: L 0.68 | K 1.05 | N -0.13 | F -0.49 | M 1.08 | C 0.03 | T 0.88 | D 0.42 | Y 0.15 | P -1.23 | W 0.59 | Q 0.55 | G 0.48 | H 0.55 | S 0.71 | I -0.01 | V 0.81 | E 1.04 | A 0.72
T238: F 0.86 | Y -0.01 | H 0.24 | N 0.67 | R 0.94 | W -0.07 | I 0.62 | E 0.87 | Q 0.63 | V 0.95 | D 0.72 | M 0.93 | L 0.67 | C 0.64 | G 0.71 | K 0.3 | P -0.64 | A 0.6 | S 0.64
I234: S -0.92 | H -1.04 | M 0.48 | T 0.09 | W 0.32 | F 1.03 | D -0.5 | A -0.02 | K -1.32 | L 0.43 | G -1 | C 0.01 | Y -0.62 | N -1.67 | Q -1.65 | E -1.49 | P -0.22 | R -1.51 | V 0.49
I225: M 0.37 | D 0.7 | Y 1.24 | E 1.24 | G 0.01 | Q 0.49 | L 0.83 | P -1.25 | F 0.71 | C 0.31 | K 0.58 | S 0.63 | V 0.48 | T 0.51 | W 0.02 | H 0.53 | N 0.09 | R 0.53 | A 0.41
M235: W 0.91 | Y 0.92 | Q 0.65 | T 0.37 | N 1.02 | D -0.066 | P -0.94 | E 0 | G 0.75 | R 0.56 | A 0.36 | I 0.26 | L 0.66 | V 0.18 | F 0.84 | C 0.86 | H 0.69 | S 0.53 | K 0.78
G228: D -1.5 | N -0.63 | A 0.3 | S 0.43 | K -1.33 | T -0.37 | I -1.44 | R -0.47 | Q -1.35 | C 0.31 | E -0.84 | L -1.15 | W -1.51 | F -0.64 | P -1.47 | V -1.04 | M -0.15 | H -1.79 | Y -2.12
A224: Q -0.44 | T 0.39 | V 0.53 | W -1.5 | Y -0.45 | R -1.54 | S 0.3 | P -1.81
E240: S 0.98 | H 0.77 | Y 0.83 | M 1.09 | N 0.97 | R 0.44 | C 0.37 | G 0.76 | V 0.99 | I 0.23 | F 0.84 | L 0.37 | A 0.93 | D 0.58 | W 0.422 | P -0.9 | Q 1 | T 1 | K 0.46
G236: D -0.43 | H -1.67 | R -1.3 | P -1.06 | Y -1.44 | S -0.08 | M -2.18 | I -1.64 | N -1.82 | Q 0.48 | V -1.25 | A 0.11 | K -2 | L -1.75 | C -1.64 | E -1.08 | T -0.62 | W -2.11 | F -1.96
K237: P 0.32 | R 0.73 | G 0.05 | H -0.04 | T 0.58 | Y 0.48 | L 0.6 | Q -0.79 | F 0.86 | D 0.73 | S 0.2 | W 0.453 | A 0.85 | E 0.47 | M 0.8 | V 0.29 | N 0.32 | I 0.24 | C 0.61
V226: K -1.06 | Y -0.87 | M 0.21 | I 0.04 | D -1.82 | N -0.64 | P -0.81 | E 0.47 | F 0.29 | L 0.56 | H -1.36 | W -1.37 | Q -0.68 | T 0.44 | S 0.01 | G -0.26 | C 0.33 | A 0.3 | R -1.54
H242: C 1 | A 0.4 | D 0.83
I239: C 0.46 | Y -1.52 | H -0.15 | N -1.44 | G -0.41 | W -0.02 | F -0.45 | T 0.15 | L 0.49 | A 0.09 | S -1.1 | V 0.12 | E 0 | P -1.08 | R -1.04 | D -1.13 | K -1.38 | Q -1.16 | M 0.83
E230: W 0.47 | C 1.05 | Q 0.32 | L 0.63 | D 0.26 | V 0.49 | R 0.28 | H 0.9 | K 0.42 | I 0.14 | S 0.75 | M 0.53 | A 0.38 | Y 0.86 | P -0.01 | T 1.29 | N 0.82 | G 0.43 | F 1.05
F233: S 0.62 | H 0.36 | Q 0.77 | M 1.15 | N 0.87 | P -1.53 | Y 0.56 | G -0.1 | L 0.47 | R 0.69 | T 0.7 | A 0.97 | E 0.63 | C -0.13 | V 0.18 | I 0.99 | W 0.09 | K 0.34 | D -0.146
F241: R -1.19 | Q -1.74 | M 0.82 | I 0.2 | K -1.17 | D -0.57 | H -2.08 | S -1.23 | P -0.89 | A 0.14 | E 0.03 | V -0.37 | C 0.62 | L 0.35 | W 1.2 | T -0.91 | Y -0.82 | G -0.98 | N -0.57
N229: I 0.92 | M 1.28 | L 0.33 | H 1.03 | T 0.29 | K 0.95 | S 0.94 | Q 0.93 | A 0.8 | R 0.82 | D 0.08 | W 0 | Y -0.25 | F 1.19 | P 0.68 | V 0.87 | G 0.8 | C 0.72 | E 0.51
